Experimental data taken from patent publication US20230090114A1, “METHODS FOR PROMOTING WEIGHT LOSS” (89BIO LTD., priority 2020, published 2023).

What was measured:
[1] = Indirect calorimetry: VO2, VCO2, EE, RER (METABOpack sessions); type: in vivo, CD-1 mice
Description: The Physiocage System allows recording the O2 consumption (VO2) and the CO2 production (VCO2) by indirect calorimetry. For each animal, both VO2 and VCO2 were recorded for 3 min every 30 minutes and the mean values were calculated by the system.
Energy Expenditure (EE) and Respiratory Exchange Ratio (RER) were calculated with formulas that are based on VO2 and VCO2 values: […]
Analysis of these parameters was performed as follows: for each mouse, the mean values were calculated from the corresponding recordings for each nycthemeral phase (Diurnal Phase or DP, Nocturnal Phase or NP and Whole day or WD). The means per nycthemeral phase were then calculated for each group for statistical comparisons.

[2] = Total spontaneous activity and rearing (METABOpack sessions); type: in vivo, CD-1 mice; details: T2; WD; 0.3 and 3 mg/kg; vs Liraglutide
Description: Horizontal spontaneous activity and rearing behavior were recorded every second by the Physiocage System. The analysis was performed by plotting data every 30 minutes in order to obtain the kinetic of the behaviors. For each mouse, the sums of the activity and rearing events were calculated for each nycthemeral phase (Diurnal period or DP; Nocturnal period or NP and Whole Day or WD). The means per nycthemeral phase were then calculated for each group for statistical comparisons.

[3] = Body composition (minispec Analyzer, TD-NMR); type: in vivo, CD-1 mice
Description: For body composition analyses, a minispec Analyzer (LF90II, Bruker, Germany) was used. The LF90II provides an accurate measure of the whole-body lean mass, fat mass and free fluid mass in living and vigil animals.
Body composition was measured using a minispec Analyzer (LF90II, Bruker, Germany) one (1) day before treatment start on habituation day 7 (H7) and on treatment day 13 (T13) and treatment day 25 (T25) of Treatment days. Briefly, each mouse was placed in a red clear plastic tube sealed by a plunger. Then, the tube was inserted into the minispec Analyzer for measurement of body composition (˜ 2 min/measurement). Once the measurement completed, the mouse was removed from the plastic tube and immediately replaced into its cage. The tube and the plunger were washed and dried between each mouse. As a reminder, the Minispec analyser allows fast and precise measurements of fat tissue (g) (adipose tissue), lean tissue (g) (mainly muscles) and free fluid content (g). It should be noted that each measurement was performed just prior to a METABOpack™ session in order to normalize the respiratory exchanges-related parameters of each mouse by its lean mass (see METABOpack™ session section).
General Methods: Naive CD-1 mice were treated subcutaneously (SC) for 4 weeks at ambient temperature with BIO89-100 at doses of 0, 0.3, 1.0 and 3.0 mg/kg (3qW×4 weeks) or with liraglutide at 0.2 mg/kg (BID×4 W; SC). BW and FC were measured daily throughout the treatment period. To investigate the impact of BIO89-100 on energy expenditure, the respiratory exchanges (VO2 and VCO2) were recorded during 3 distinct sessions of METABOpack™, a multiparametric approach allowing an automated and simultaneous recording of FC, water intake, respiratory exchanges and spontaneous activity. Meal pattern analysis was conducted on the high-resolution recordings of FC. The body composition (fat, lean and fluid masses) was analyzed 3 times during the study by the mean of Time-Domain Nuclear Magnetic Resonance (TD-NMR).

[4] = Diet-induced NASH model in mice; type: in vivo; details: 0.3 mg/kg, 3 times/week
[5] = T1, whatever the dose, vs vehicle
[6] = T2, DP and WD, whatever the dose, vs Liraglutide
[7] = T2, whatever the dose, vs vehicle
[8] = T14, DP, 3 mg/kg, vs Liraglutide
[9] = T14, NP and WD, whatever the dose, vs Liraglutide
[10] = T14, NP and WD, whatever the dose, vs vehicle
[11] = T14, between the three 89BIO-100 groups
[12] = T15, NP and WD, 1 and 3 mg/kg, vs vehicle
[13] = T15, between the three 89BIO-100 groups
[14] = T15, whatever the phase, 1 and 3 mg/kg, vs Liraglutide
[15] = T27, NP, whatever the dose, vs vehicle
[16] = T27, WD, 0.3 and 1 mg/kg, vs Liraglutide
[17] = T27, WD, 0.3 and 1 mg/kg, vs vehicle
[18] = T27, between the three 89BIO-100 groups
[19] = BIO89-100-treated CD-1 mice, overall
[20] = T13, three doses, vs Liraglutide

B1: Mutant FGF21-GalNAc-SA-PEG-20 kDa (conjugate)
chain: MHPIPDSSPLLQFGGQVRQRYLYTDDAQQTEAHLEIREDGTVGGAADQSPESLLQLKALKPGVIQILGVKTSRFLCQRPDGALYGSLHFDPEACSFRELLLEDGYNVYQSEAHGLPLHLPGNKSPHRDPAPRGPARFLPLPGLPPALPEPPGILAPQPPDVGSSDPLSMVGPTQGASPSYAS
With B1 the RER ([1]; T1, NP and WD, whatever the dose, vs Liraglutide) was “increase in RER”, the VCO2 ([1]; T1, NP, whatever the dose, vs Liraglutide) was “increase in VCO2” and the RER ([1]; T1, between 89BIO-100 groups) was “no significant difference”. The VCO2 ([1]; T1, between all 89BIO-100 groups) was “no significant difference”, the RER [1, 5] was “No significant difference” and the VCO2 [1, 5] was “No significant difference”. The EE [1, 6] was “increase in EE”, the VO2 [1, 6] was “increase in VO2” and the EE ([1]; T2, between 89BIO-100 groups) was “no significant difference”. The VO2 ([1]; T2, between the three 89BIO-100 groups) was “no significant difference”, the EE [1, 7] was “No significant difference” and the VO2 [1, 7] was “No significant difference”. The EE [1, 8] was “increased”, the VO2 [1, 8] was “increased” and the EE ([1]; T14, DP, 3 mg/kg, vs vehicle) was “increased”. The VO2 ([1]; T14, DP, 3 mg/kg, vs vehicle) was “increased”, the EE [1, 9] was “increase in EE” and the RER [1, 9] was “decrease in RER”. For the same molecule, the VO2 [1, 9] was “increase in VO2”, the EE [1, 10] was “increased” and the VO2 [1, 10] was “increased”. The VCO2 ([1]; T14, NP, whatever the dose, vs Liraglutide) was “increase in VCO2”, the VCO2 ([1]; T14, NP, whatever the dose, vs vehicle) was “increased” and the VCO2 ([1]; T14, WD, 1 and 3 mg/kg, vs Liraglutide) was “increased”. The VCO2 ([1]; T14, WD, 1 and 3 mg/kg, vs vehicle) was “increased”, the EE [1, 11] was “no significant difference” and the VCO2 [1, 11] was “no significant difference”. For the same molecule, the VO2 [1, 11] was “no significant difference”, the RER ([1]; T14, whatever the dose, vs vehicle) was “No significant difference” and the EE ([1]; T15, DP, 1 mg/kg, vs vehicle) was “increased”. The VCO2 ([1]; T15, DP, 1 mg/kg, vs vehicle) was “increased”, the VO2 ([1]; T15, DP, 1 mg/kg, vs vehicle) was “increased” and the EE [1, 12] was “increased”. For the same molecule, the VCO2 [1, 12] was “increased”, the VO2 [1, 12] was “increased” and the EE [1, 13] was “no significant difference”. For the same molecule, the VCO2 [1, 13] was “no significant difference”, the VO2 [1, 13] was “no significant difference” and the EE [1, 14] was “increase in EE”. The VCO2 [1, 14] was “increase in VCO2”, the VO2 [1, 14] was “increase in VO2” and the VCO2 ([1]; T27, NP and WD, 0.3 and 1 mg/kg, vs vehicle) was “increased”. The VCO2 ([1]; T27, NP and WD, dose of 1, vs Liraglutide) was “increase in VCO2”, the VO2 ([1]; T27, NP, 1 and 3 mg/kg, vs Liraglutide) was “increase in VO2” and the EE ([1]; T27, NP, dose of 1, vs Liraglutide) was “increase in EE”. For the same molecule, the EE [1, 15] was “increased”, the VO2 [1, 15] was “increased” and the EE [1, 16] was “increased”. The VO2 [1, 16] was “increase in VO2”, the EE [1, 17] was “increased” and the VO2 [1, 17] was “increased”. The EE [1, 18] was “no significant difference”, the VCO2 [1, 18] was “no significant difference” and the VO2 [1, 18] was “no significant difference”. For the same molecule, the thermogenesis ([1]; concluded from energy expenditure effects) was “increased”, the energy expenditure ([1]; summary, second (T14/T15) and third (T27) METABOpack session, vs Vehicle) was “increase in energy expenditure” and the total spontaneous activity [2] was “higher total spontaneous activity”. For the same molecule, the fat mass [3, 19] was “marked decrease in fat mass”, the “lean masses and body fluid” value [3, 19] was “without affecting” and the “fat mass (g)” value ([3]; T13, 3 mg/kg, vs 0.3 mg/kg) was “significantly decreased”. The “fluid mass (g)” value ([3]; T13, 3 mg/kg, vs 0.3 mg/kg) was “significantly decreased”, the “lean mass (g)” value ([3]; T13, 3 mg/kg, vs 0.3 and 1 mg/kg) was “reduction in lean mass” and the “fluid mass (g)” value ([3]; T13, 3 mg/kg, vs vehicle) was “significantly decreased”. For the same molecule, the “lean mass (g)” value ([3]; T13, 3 mg/kg, vs vehicle) was “significantly decreased”, the “fat mass (g)” value ([3]; T13, 1 and 3 mg/kg, vs vehicle) was “reduction in fat mass” and the “fat mass (g)” value [3, 20] was “No significant difference”. For the same molecule, the “fluid mass (g)” value [3, 20] was “No significant difference”, the “lean mass (g)” value [3, 20] was “No significant difference” and the “fat mass (g)” value ([3]; T25, 1 and 3 mg/kg, vs vehicle) was “reduction in fat mass”. The “fat mass (g)” value ([3]; T25, three doses, vs Liraglutide) was “No significant difference”, the “delta fat mass (g)” value ([3]; T25 minus H7, 1 and 3 mg/kg, vs vehicle and Liraglutide) was “lower” and the “efficacy in Diet-induced NASH model” value [4] was “effective”.
